Test results reported in article PMC12036459.

Experiments:
[1] = target: tubulin (taxol-stabilized microtubules); assay: single-molecule TIRF on bare microtubules; details: reference: E. coli tau (non-phosphorylated)
tau (human 2N4R) [2] = target: tau (human 2N4R) (UniProt P10636); assay: Hill coefficient of microtubule binding curve; details: reference: E. coli tau (non-phosphorylated)
[3] = target: tau (human 2N4R) dGAE, 297-391 (UniProt P10636); assay: filament co-assembly, ultracentrifugation, SDS-PAGE
tau (human 2N4R) [4] = target: tau (human 2N4R) (UniProt P10636); assay: single-molecule TIRF dwell time inside envelopes; details: reference: E. coli SNAP-tau (non-phosphorylated); sites T181,S198,S202,S210,T231,S235,S237,S352,S396,S404,S422
[5] = sites T181,S202,S210,T231,S235,S237,S241,S258,S262,T319,T373,T377,T403,S404
[6] = sites T181,S198,S202,S210,T231,S235,S237,S352,S396,S404,S422

Chain of tau (human 2N4R) (P10636 whole entry, looked up, stated change not applied): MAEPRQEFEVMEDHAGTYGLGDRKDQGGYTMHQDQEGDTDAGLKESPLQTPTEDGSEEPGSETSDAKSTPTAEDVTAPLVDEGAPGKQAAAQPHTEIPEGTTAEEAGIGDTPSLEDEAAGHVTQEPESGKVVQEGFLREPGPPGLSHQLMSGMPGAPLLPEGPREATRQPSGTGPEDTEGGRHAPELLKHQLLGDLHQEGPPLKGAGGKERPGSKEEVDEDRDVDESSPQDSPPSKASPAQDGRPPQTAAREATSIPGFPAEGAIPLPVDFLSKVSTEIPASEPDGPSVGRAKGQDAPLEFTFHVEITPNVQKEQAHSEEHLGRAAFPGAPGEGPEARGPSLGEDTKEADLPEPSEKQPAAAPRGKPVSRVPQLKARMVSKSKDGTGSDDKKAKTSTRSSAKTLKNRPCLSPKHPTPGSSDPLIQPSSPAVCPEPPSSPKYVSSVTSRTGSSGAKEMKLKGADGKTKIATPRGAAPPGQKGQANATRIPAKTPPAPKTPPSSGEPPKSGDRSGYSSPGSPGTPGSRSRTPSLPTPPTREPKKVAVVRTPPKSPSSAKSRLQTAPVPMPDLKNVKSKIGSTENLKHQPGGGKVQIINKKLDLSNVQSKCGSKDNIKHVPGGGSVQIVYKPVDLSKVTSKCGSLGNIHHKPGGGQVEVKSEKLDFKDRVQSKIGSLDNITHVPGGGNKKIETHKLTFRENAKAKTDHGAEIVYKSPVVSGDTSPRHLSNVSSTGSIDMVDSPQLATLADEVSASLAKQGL

tau (human 2N4R) (from UniProt P10636-8) HEK tau
other: dwell time [1, 5]: weaker; reference ~ 4.3 | other: Hill coefficient (tau (human 2N4R) [2]; [5]): same; reference 1.24 | other: t1/2 of co-pelleting ([3]; reference: E. coli tau (non-phosphorylated), sites T181,S202,S210,T231,S235,S237,S241,S258,S262,T319,T373,T377,T403,S404): same; reference ~ 14

tau (human 2N4R) (from UniProt P10636-8) Sf9 SNAP-tau
other: dwell time (tau (human 2N4R) [4]): weaker; reference ~ 6.06

tau (human 2N4R) (from UniProt P10636-8) Sf9 tau
other: dwell time [1, 6]: weaker; reference ~ 4.3 | other: Hill coefficient (tau (human 2N4R) [2]; [6]): stronger; reference 1.24 | other: t1/2 of co-pelleting ([3]; reference: E. coli tau (non-phosphorylated), sites T181,S198,S202,S210,T231,S235,S237,S352,S396,S404,S422): stronger; reference ~ 14 | other: t1/2 of co-pelleting ([3]; reference: HEK tau, sites S210,S422): stronger; reference ~ 12
